“And” between values parts separate entries of the source, which are not always exact repeats. Identical values can stand only once. Like-named read-outs stand apart in the source and are kept apart here. Where no end group is shown, it is not given here. [ ]: non-standard residue; d: D form.
Tests used:
M. abscessus = assay: MIC against MDR M. abscessus isolates; format: cell-based, Mycobacterium abscessus; settings: 7 days; for MIC: AST media (CAAT)
A. ruhlandii = assay: MIC by broth microdilution against A. ruhlandii; format: cell-based, Achromobacter ruhlandii; settings: A. ruhlandii isolates
Method: (§1) MIC values were determined using a modification of the standard broth microdilution reference method defined by the Clinical and Laboratory Standards Institute (CLSI), CLSL. 2015. Methods for Dilution Antimicrobial Susceptibility Tests for Bacteria That Grow Aerobically; Approved Standard-10th Edition. Clinical and Laboratory Standards Institute, Wayne, PA. The modification was based on the replacement of Mueller Hinton Broth with either CAA media (with and without NaCl) or CAA supplemented with 2.5% human serum. MIC is the minimum concentration of peptide sufficient to suppress at least 80% of the bacterial growth compared to control.
Based on these nine most prevalent strains, direct lytic agents, including GN370, AM1, AM2, and AM3, were evaluated against various isolates from each of the 9 strains. MICs and MBECs (Example 3) were determined, and a sputum inhibition test was conducted, as described below in Example 5.
(§2) The MICs for were determined as described below using the broth microdilution method for meropenem, GN370, AM1, AM2, and AM3. The results are shown below in Tables 8-12.

Mycobacterium species = format: cell-based
A. xylosoxidans = format: cell-based, Achromobacter xylosoxidans; settings: for MIC: A. xylosoxidans test organism of the sputum time-kill assay
Method: as §1, §2
The activity of GN370 and AM1 was evaluated against various bacterial isolates, including mucoid and α-hemolytic isolates of P. aeruginosa, MDR isolates, and carbapenem-resistant isolates.

A. dolens = format: cell-based, Achromobacter dolens
Method: (§3) The MBEC (after 2-hour treatments) was determined as described in Jones and Wozniak, PsI Produced by Mucoid Pseudomonas aeruginosa Contributes to the Establishment of Biofilms and Immune Evasion, Am. Soc. Microbiol. 2017, 8(3):e00864-17. Meropenem and tobramycin were included as controls and were both poorly active, with MBEC90 values of >256 μg/mL (data not shown).

P. apista = format: cell-based, Pandoraea apista
Method: as §3

P. aeruginosa = assay: Checkerboard synergy assay (FICI) with antibiotics against P. aeruginosa; format: cell-based, Pseudomonas aeruginosa; parameters: key to average FICI score with amikacin: FICI: ≤0.5 synergy, >0.5–≤1 additive, >1 indifferent; settings: for MIC (dual agent): GN370 + meropenem
Outline: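 Checkerboard of 2-fold antibiotic dilutions crossed with GN370 (lysin peptide), bacteria at 1×10^5 CFU/ml in CAA, with or without human serum or pulmonary surfactant. ΣFICmin taken as FICI: ≤0.5 synergy, >0.5–≤1 additive, >1 indifferent.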

[1] = M. abscessus strain BK51403 (ATCC 19977)
[2] = P. aeruginosa (ATCC 27853, CFS 1766)
[3] = P. aeruginosa (ATCC 27853, CFS 1766), GN370 with meropenem
[4] = P. aeruginosa (CFS 2045), GN370 with meropenem
[5] = P. aeruginosa (CFS 2061), GN370 with meropenem
[6] = P. aeruginosa strain AR-769, GN370 with Amikacin
[7] = P. aeruginosa strain AR-769, GN370 with Cefepime
[8] = P. aeruginosa strain AR-769, GN370 with Ceftazidime
[9] = P. aeruginosa strain AR-769, GN370 with Ciprofloxacin
[10] = P. aeruginosa strain AR-769, GN370 with Colistin
[11] = P. aeruginosa strain AR-769, GN370 with Meropenem
[12] = P. aeruginosa strain AR-769, GN370 with Tobramycin
[13] = P. aeruginosa strain AR-769, in combination with Amikacin
[14] = P. aeruginosa strain AR-769, in combination with Cefepime
[15] = P. aeruginosa strain AR-769, in combination with Ceftazidime
[16] = P. aeruginosa strain AR-769, in combination with Ciprofloxacin
[17] = P. aeruginosa strain AR-769, in combination with Meropenem
[18] = P. aeruginosa strain AR-769, in combination with Tobramycin
[19] = Achromobacter xylosoxidans, N 11 (Table 26)
[20] = A. dolens (15), 2-hour treatment
[21] = P. apista (15), 2-hour treatment

MRLKMARRRYRLPRRRSRRLFSRTALRMHPRNRLRRIMRGGIRF [AM1]
activity (MIC) against M. abscessus (M. abscessus; 5 clinical MDR strains and 1 ATCC strain, CAAT): highly active
MIC (M. abscessus; M. abscessus strain BK51402): 1 µg/mL
MIC (M. abscessus; [1]): 2 µg/mL
MIC (M. abscessus; M. abscessus strain BK51408): 4 µg/mL
MIC (M. abscessus; M. abscessus strain BK55096): 1 µg/mL
MIC (M. abscessus; M. abscessus strain BK55691): 1 µg/mL
MIC (M. abscessus; M. abscessus strain BK58156): 2 µg/mL
MIC50 (A. ruhlandii): 1 µg/mL
MIC90 (A. ruhlandii): 4 µg/mL
MIC Range (A. ruhlandii; in µg/mL): 0.125-8
activity (MIC) against Mycobacterium species (Mycobacterium species): highest activity
AM1 MIC50 (A. xylosoxidans): 0.5 µg/mL
AM1 MIC90 (A. xylosoxidans): 1 µg/mL
MIC50 (A. xylosoxidans): 1 µg/mL
MIC90 (A. xylosoxidans): 4 µg/mL
MIC50 (A. xylosoxidans; A. xylosoxidans isolates): 0.5 µg/mL
MIC90 (A. xylosoxidans; A. xylosoxidans isolates): 2 µg/mL
MIC Range (A. xylosoxidans; A. xylosoxidans isolates, in µg/mL): 0.016-4
MIC (A. xylosoxidans): AM1 (MIC = 0.5)
MIC Range (A. xylosoxidans; MDR A. xylosoxidans isolates (n = 14), in µg/mL): 0.5-4
AM1 MIC Range (A. xylosoxidans; carbapenem-resistant A. xylosoxidans isolates (n = 7), in µg/mL): 0.06225-1
MBEC50 (A. dolens): 2 µg/mL
MBEC90 (A. dolens): 4 µg/mL
MBEC Range (A. dolens): 1 to 8 µg/mL
MBEC50 (P. apista): 8 µg/mL
MBEC90 (P. apista): 16 µg/mL

M[dR]L[dK]MA[dR][dR][dR]Y[dR]LP[dR][dR][dR]S[dR][dR]LFS[dR]TAL[dR]MHP[dR]N[dR]L[dR][dR]IM[dR]GGI[dR]F [AM2]
MIC (M. abscessus; M. abscessus strain BK51402): 2 µg/mL
MIC (M. abscessus; [1]): 4 µg/mL
MIC (M. abscessus; M. abscessus strain BK51408): 8 µg/mL
MIC (M. abscessus; M. abscessus strain BK55096): 4 µg/mL
MIC (M. abscessus; M. abscessus strain BK55691): 1 µg/mL
MIC (M. abscessus; M. abscessus strain BK58156): 1 µg/mL
MIC50 (A. ruhlandii): 2 µg/mL
MIC90 (A. ruhlandii): 16 µg/mL
activity (MIC) against Mycobacterium species (Mycobacterium species): highest activity
MIC50 (A. xylosoxidans; A. xylosoxidans isolates): 2 µg/mL
MIC90 (A. xylosoxidans; A. xylosoxidans isolates): 64 µg/mL
MIC (A. xylosoxidans): AM2 (MIC = 1)
MBEC50 (A. dolens): 4 µg/mL
MBEC90 (A. dolens): 8 µg/mL
MBEC Range (A. dolens): 1 to 8 µg/mL
MBEC50 (P. apista): 8 µg/mL
MBEC90 (P. apista): 16 µg/mL

B1: GN370: lysin-AMP construct, SEQ ID NO: 149: MIDR, FIRL and NPTH moieties N-terminal to GN202 lysin (protein)
chain: MIDRFIRLNPTHGPRRPRRPGRRAPVRTSQRGIDLIKSFEGLRLSAYQDSVGVWTIGYGTTRGVTRYMTITVEQAERMLSNDIQRFEPELDRLAKVPLNQNQWDALMSFVYNLGAANLASSTLLDLLNKGDYQGAADQFPHWVNAGGKRLDGLVKRRAAERALFLEPLS
modifications: GN370 lysin
MIC50 (A. ruhlandii): 2 µg/mL
MIC90 (A. ruhlandii): > 32 µg/mL
GN370 FIC (P. aeruginosa): 0.125
synergy with meropenem (P. aeruginosa; 3 strains of P. aeruginosa): synergizes with meropenem against P. aeruginosa
MIC (alone) (P. aeruginosa; [2]): 1 µg/mL
MIC (dual agent) (P. aeruginosa; [2]): 0.06 µg/mL
FICmin (P. aeruginosa; [3]): 0.091
FICmin interpretation (P. aeruginosa; [3]): (Synergy)
MIC (alone) (P. aeruginosa; P. aeruginosa (CFS 2045)): 2 µg/mL
MIC (dual agent) (P. aeruginosa; P. aeruginosa (CFS 2045)): 0.06 µg/mL
FICmin (P. aeruginosa; [4]): 0.155
FICmin interpretation (P. aeruginosa; [4]): (Synergy)
MIC (alone) (P. aeruginosa; P. aeruginosa (CFS 2061)): 4 µg/mL
MIC (dual agent) (P. aeruginosa; P. aeruginosa (CFS 2061)): 0.25 µg/mL
FICmin (P. aeruginosa; [5]): 0.125
FICmin interpretation (P. aeruginosa; [5]): (Synergy)
GN370 MIC (single agent) (P. aeruginosa; P. aeruginosa strain AR-769): 2 µg/mL
FICave (P. aeruginosa; [6]): 0.323
FICmin (P. aeruginosa; [6]): 0.281
FICave (P. aeruginosa; [7]): 0.542 and 0.419
FICmin (P. aeruginosa; [7]): 0.5 and 0.375
FICave (P. aeruginosa; [8]): 1.073
FICmin (P. aeruginosa; [8]): 1.031
FICave (P. aeruginosa; [9]): 0.543 and 0.417
FICmin (P. aeruginosa; [9]): 0.5 and 0.375
FICave (P. aeruginosa; [10]): 0.292
FICmin (P. aeruginosa; [10]): 0.25
FICave (P. aeruginosa; [11]): 0.422 and 0.419
FICmin (P. aeruginosa; [11]): 0.375
FICave (P. aeruginosa; [12]): 0.418
FICmin (P. aeruginosa; [12]): 0.375
average FICI score with amikacin (P. aeruginosa; P. aeruginosa strain AR-769, checkerboard): 0.323
GN370 FIC (P. aeruginosa; [13]): 0.031
GN370 MIC (combo) (P. aeruginosa; [13]): 0.063 µg/mL
GN370 FIC (P. aeruginosa; [14]): 0.25
GN370 MIC (combo) (P. aeruginosa; [14]): 0.5 µg/mL
GN370 FIC (P. aeruginosa; [15]): 0.031
GN370 MIC (combo) (P. aeruginosa; [15]): 0.063 µg/mL
GN370 FIC (P. aeruginosa; [16]): 0.25
GN370 MIC (combo) (P. aeruginosa; [16]): 0.5 µg/mL
GN370 MIC (combo) (P. aeruginosa; P. aeruginosa strain AR-769, in combination with Colistin): 0.25 µg/mL
GN370 FIC (P. aeruginosa; [17]): 0.25
GN370 MIC (combo) (P. aeruginosa; [17]): 0.5 µg/mL
GN370 FIC (P. aeruginosa; [18]): 0.25
GN370 MIC (combo) (P. aeruginosa; [18]): 0.5 µg/mL
MIC50 (A. xylosoxidans; A. xylosoxidans isolates): 8 µg/mL
MIC90 (A. xylosoxidans; A. xylosoxidans isolates): > 32 µg/mL
MIC (A. xylosoxidans): GN370 (MIC = 0.25)
MIC50 (A. xylosoxidans; [19]): >64 µg/mL
MIC90 (A. xylosoxidans; [19]): >64 µg/mL
MBEC50 (A. dolens; [20]): 32 µg/mL
MBEC90 (A. dolens; [20]): 128 µg/mL
MBEC Range (A. dolens; [20]): 4 to 128 µg/mL
MBEC50 (P. apista; [21]): 32 µg/mL
MBEC90 (P. apista; [21]): 64 µg/mL
MBEC Range (P. apista; [21]): 8 to 64 µg/mL
